Four molecules from US20220233710A1 (NANTONG YICHEN BIOPHARMA, published 2022) can be followed below.

Experiment [1] concerns the target T1, Recombinant human IL-6 (human, UniProt P05231 30-212).
T1 construct: Bought protein
The experiment can be described thus: ELISA, human IL-6 coated on plate, anti-human Fc-HRP. As to the method:
Recombinant human IL-6 (SinoBiological) (100 ng/well) (PBS buffer, pH7.4) was coated in a 96-well plate, and incubated overnight at 4° C. After blocked with PBST containing 2% skimmed milk powder (0.5% Tween-20 in PBS) at room temperature for 1 hour, followed by being washed for 3 times with PBST, the bispecific molecules (0.04 nM-30 nM) in gradient dilutions were added and incubated at 37° C. for 1 h. After being washed for 3 times with PBST, anti-human Fc-HRP (KPL, 1:2500) secondary antibody diluted by 2% milk/PBST was added and incubated at room temperature for 1 h, followed by being washed for 5 times with PBST. TMB (BioLegend) was used for color development, and readings was performed in Thermal VARIOSKAN FLASH plate reader at 650 nm. Data was analyzed with a log[agonist] vs response (3 parameters) model in “non-linear regression” by Graphpad Prizm software.
(In general: ELISA stands for enzyme-linked immunosorbent assay.)

Experiment [2] has as its target T2, recombinant mouse IL-1β (mouse, UniProt P10749 118-269).
T2 construct: Bought protein; also called murine IL-1β
The experiment can be described thus: ELISA, IL-1β coated on plate, anti-human Fc-HRP. As to the method:
(§1) Recombinant human IL-1β (Thermo Fisher Scientific), recombinant mouse IL-1β (Sino Bio), recombinant mouse IL-1R (Sino Bio), or recombinant human IL-1R (100 ng/well) (DPBS buffer, pH7.4) was coated in a 96-well plate, and incubated overnight at 4° C. After blocked by PBST (0.5% Tween-20 in PBS) containing 2% skimmed milk powder for 1 hour at room temperature, and being washed with PBST for 3 times, the gradient diluted bispecific molecules (0.006 nM-100 nM) were added and incubated at 37° C. for 1 h. After being washed with PBST for 3 times, anti-human Fc-HRP (KPL; 1:2500) secondary antibody diluted by 2% milk/PBST was added and incubated at room temperature for 1 h, and then washed by PBST for 5 times. QuantaBlu fluorescent peroxide enzyme substrate (Life technologies, Cat. 15169) was used for color development, and reading was performed at 325 nm and 420 nm, or TMB color reagent (Bio Legend) was used for color development, and the reading was performed at 650 nm. Data was analyzed by nonlinear regression using specific binding model in Prizm Graphpad software.

For experiment [3], the target named is T3, recombinant human IL-1β (human, UniProt P01584 117-269).
T3 construct: Bought protein
The experiment can be described thus: ELISA, IL-1β coated on plate, anti-human Fc-HRP. As to the method: as §1

T1 sequence (P05231 30-212 limits assumed): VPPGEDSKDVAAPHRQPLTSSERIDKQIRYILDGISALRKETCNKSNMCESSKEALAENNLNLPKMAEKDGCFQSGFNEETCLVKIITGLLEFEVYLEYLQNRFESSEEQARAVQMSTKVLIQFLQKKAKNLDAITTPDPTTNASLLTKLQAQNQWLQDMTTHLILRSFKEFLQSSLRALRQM

B1: BSI-13 (bispecific antibody, human IgG1, kappa, N297A)
heavy: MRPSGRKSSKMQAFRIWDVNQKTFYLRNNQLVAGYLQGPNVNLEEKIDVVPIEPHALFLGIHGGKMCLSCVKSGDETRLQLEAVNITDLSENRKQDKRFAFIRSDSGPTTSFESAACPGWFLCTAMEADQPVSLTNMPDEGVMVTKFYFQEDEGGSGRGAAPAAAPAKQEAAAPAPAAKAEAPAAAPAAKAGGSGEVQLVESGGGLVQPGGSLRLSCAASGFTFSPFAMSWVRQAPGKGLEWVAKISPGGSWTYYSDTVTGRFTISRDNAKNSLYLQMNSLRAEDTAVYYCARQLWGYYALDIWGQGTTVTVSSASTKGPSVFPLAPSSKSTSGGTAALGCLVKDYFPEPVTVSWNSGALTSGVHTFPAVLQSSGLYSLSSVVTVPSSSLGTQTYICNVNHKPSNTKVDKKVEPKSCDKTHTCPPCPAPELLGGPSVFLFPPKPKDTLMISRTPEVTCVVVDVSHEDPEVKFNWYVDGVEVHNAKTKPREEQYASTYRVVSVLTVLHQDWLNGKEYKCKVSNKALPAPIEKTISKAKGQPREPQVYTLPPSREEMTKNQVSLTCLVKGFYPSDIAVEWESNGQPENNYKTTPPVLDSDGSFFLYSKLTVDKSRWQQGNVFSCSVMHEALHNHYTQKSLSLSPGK
light: EIVLTQSPATLSLSPGERATLSCSASISVSYMYWYQQKPGQAPRLLIYDMSNLASGIPARFSGSGSGTDFTLTISSLEPEDFAVYYCMQWSGYPYTFGGGTKVEIKRTVAAPSVFIFPPSDEQLKSGTASVVCLLNNFYPREAKVQWKVDNALQSGNSQESVTEQDSKDSTYSLSSTLTLSKADYEKHKVYACEVTHQGLSSPVTKSFNRGEC
notes: aIL-6 antibody fused with IL-1RA by a linker peptide
On to B1, for which the binding result in experiment [1] is recorded as “binds”.

B2: BSI-16 (bispecific antibody, human IgG1, kappa)
heavy: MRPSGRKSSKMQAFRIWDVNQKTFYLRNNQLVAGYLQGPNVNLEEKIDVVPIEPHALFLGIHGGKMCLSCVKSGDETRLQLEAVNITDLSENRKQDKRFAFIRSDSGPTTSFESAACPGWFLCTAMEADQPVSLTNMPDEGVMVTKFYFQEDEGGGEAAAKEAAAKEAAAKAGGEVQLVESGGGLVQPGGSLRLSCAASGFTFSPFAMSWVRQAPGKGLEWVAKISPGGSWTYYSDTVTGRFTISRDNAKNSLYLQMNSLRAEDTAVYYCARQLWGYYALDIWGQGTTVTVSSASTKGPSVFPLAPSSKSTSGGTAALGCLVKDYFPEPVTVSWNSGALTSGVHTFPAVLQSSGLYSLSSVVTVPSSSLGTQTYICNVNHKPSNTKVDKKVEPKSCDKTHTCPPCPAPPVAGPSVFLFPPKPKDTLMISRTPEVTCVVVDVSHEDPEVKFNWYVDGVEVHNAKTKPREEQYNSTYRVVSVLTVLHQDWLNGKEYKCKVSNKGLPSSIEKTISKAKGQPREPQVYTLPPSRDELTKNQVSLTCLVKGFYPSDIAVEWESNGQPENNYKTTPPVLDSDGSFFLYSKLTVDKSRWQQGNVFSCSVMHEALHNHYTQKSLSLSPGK
light: EIVLTQSPATLSLSPGERATLSCSASISVSYMYWYQQKPGQAPRLLIYDMSNLASGIPARFSGSGSGTDFTLTISSLEPEDFAVYYCMQWSGYPYTFGGGTKVEIKRTVAAPSVFIFPPSDEQLKSGTASVVCLLNNFYPREAKVQWKVDNALQSGNSQESVTEQDSKDSTYSLSSTLTLSKADYEKHKVYACEVTHQGLSSPVTKSFNRGEC
notes: as for B1
Take B2: the binding result in experiment [1] is on record as “binds”.

B3: aIL-6 antibody (antibody, human IgG1, kappa, N297A, V domains shown)
VH: EVQLVESGGGLVQPGGSLRLSCAASGFTFSPFAMSWVRQAPGKGLEWVAKISPGGSWTYYSDTVTGRFTISRDNAKNSLYLQMNSLRAEDTAVYYCARQLWGYYALDIWGQGTTVTVSS
VL: EIVLTQSPATLSLSPGERATLSCSASISVSYMYWYQQKPGQAPRLLIYDMSNLASGIPARFSGSGSGTDFTLTISSLEPEDFAVYYCMQWSGYPYTFGGGTKVEIKR
Turning to B3, the binding result in experiment [1] was “binds”.

B4: aIL-1β-2 antibody (antibody, V domains shown)
VH: QVQLQQWGAGLLKPSETLSLTCAVYGGSFSDYYWSWIRQPPGKGLEWIGEIDHSGSTNYNPSLKSRVTISVDTSKNQFSLKLSSVTAADTAVYYCARASPSSGWTLDYWGQGTLVTVSS
VL: QSVLTQPPSVSVSPGQTASITCSGDKLGDKFAFWYQQKPGQSPVLVIYLDNKRPSGIPERFSGSNSGNTATLTISGTQALDEADYYCYAWADTYEVFGGGTKVDIKR
Regarding B4, the binding result in experiment [2] and in experiment [3] was “binds” in each case.
